Source: patent publication US8460910B2 (Illumina Cambridge Limited, priority 2003, dated 2013)

Legend:
[1] = test system: cordycepin (3′deoxy adenosine triphosphate); conditions: Vent polymerase variant; cited from earlier work
[2] = test system: 3′ modified nucleotide analogues; assay: Example 1 library screen (ffT-DIG filter assay) and primer extension assay against 9DM control; assay type: biochemical; conditions: variants mutated at regions A and B
Method: Mutations were introduced simultaneously at two regions of the 9° N DNA polymerase sequence, residues 408-410, and residues 484-486. A library of polymerase variants was screened for the incorporation of the 3′ modified nucleotide analogues.
The variant polymerases have increased activity towards the modified nucleotides utilised in the experiments. Thus, they appear to incorporate nucleotide analogues which have been modified at the 3′ sugar hydroxyl such that the substituent is larger in size than the naturally occurring 3′ hydroxyl group in primer extension assays faster than previously available polymerases which can act as a control polymerase, such as the 9° N (-exo) Y409V/A485L double mutant (designated 9DM herein).
There are many different methods for screening for nucleotide incorporation that are variations on the method of Sagner et al. (1991). One suitable method is described herein for the incorporation of 3′ modified nucleotide analogues that uses a digoxigenin-3-O-methyl-carbonyl-e-aminocaproic acid (DIG) derivative of the relevant nucleotide analogue (ffT-DIG)
Remove tape and 3 MM paper and place filter back in petri dish. Add incorporation solution pre-warmed to temperature that incorporation will be tested at. […]
This is a generalised method. […] Also, have ready eppendorf containing 1 μl CHASE mix for each reaction. […]

ddNTPs = conditions: cited from earlier work

Y412V: Vent DNA polymerase with mutation Y412V (Gardner and Jack 1999)
rate enhancement with cordycepin [1]: 2 fold

B1: 2E: L408V/Y409A/P410L R484I/A485S/I486N 9° N mutant; SEQ ID NO: 12 (protein)
chain: MILDTDYITENGKPVIRVFKKENGEFKIEYDRTFEPYFYALLKDDSAIEDVKKVTAKRHGTVVKVKRAEKVQKKFLGRPIEVWKLYFNHPQDVPAIRDRIRAHPAVVDIYEYDIPFAKRYLIDKGLIPMEGDEELTMLAFAIATLYHEGEEFGTGPILMISYADGSEARVITWKKIDLPYVDVVSTEKEMIKRFLRVVREKDPDVLITYNGDNFDFAYLKKRCEELGIKFTLGRDGSEPKIQRMGDRFAVEVKGRIHFDLYPVIRRTINLPTYTLEAVYEAVFGKPKEKVYAEEIAQAWESGEGLERVARYSMEDAKVTYELGREFFPMEAQLSRLIGQSLWDVSRSSTGNLVEWFLLRKAYKRNELAPNKPDERELARRRGGYAGGYVKEPERGLWDNIVYLDFRSVALSIIITHNVSPDTLNREGCKEYDVAPEVGHKFCKDFPGFIPSLLGDLLEERQKIKRKMKATVDPLEKKLLDYRQISNKILANSFYGYYGYAKARWYCKECAESVTAWGREYIEMVIRELEEKFGFKVLYADTDGLHATIPGADAETVKKKAKEFLKYINPKLPGLLELEYEGFYVRGFFVTKKKYAVIDEEGKITTRGLEIVRRDWSEIAKETQARVLEAILKHGDVEEAVRIVKEVTEKLSKYEVPPEKLVIHEQITRDLRDYKATGPHVAVAKRLAARGVKIRPGTVISYIVLKGSGRIGDRAIPADEFDPTKHRYDAEYYIENQVLPAVERILKAFGYRKEDLRYQKTKQVGLGAWLKVKGKK
modifications: 9oN polymerase variant (exo-) with L408V/Y409A/P410L R484I/A485S/I486N mutations
incorporation of 3′ modified nucleotide analogues compared to control polymerase (9DM) [2]: improved incorporation

B2: A486Y variant of Pfu DNA polymerase: Pfu DNA polymerase with A486Y mutation (Evans et al. 2000) (protein, UniProt P61875 1-775, looked up, variant A486Y)
DNA polymerase: MILDVDYITEEGKPVIRLFKKENGKFKIEHDRTFRPYIYALLRDDSKIEEVKKITGERHGKIVRIVDVEKVEKKFLGKPITVWKLYLEHPQDVPTIREKVREHPAVVDIFEYDIPFAKRYLIDKGLIPMEGEEELKILAFDIETLYHEGEEFGKGPIIMISYADENEAKVITWKNIDLPYVEVVSSEREMIKRFLRIIREKDPDIIVTYNGDSFDFPYLAKRAEKLGIKLTIGRDGSEPKMQRIGDMTAVEVKGRIHFDLYHVITRTINLPTYTLEAVYEAIFGKPKEKVYADEIAKAWESGENLERVAKYSMEDAKATYELGKEFLPMEIQLSRLVGQPLWDVSRSSTGNLVEWFLLRKAYERNEVAPNKPSEEEYQRRLRESYTGGFVKEPEKGLWENIVYLDFRALYPSIIITHNVSPDTLNLEGCKNYDIAPQVGHKFCKDIPGFIPSLLGHLLEERQKIKTKMKETQDPIEKILLDYRQKYIKLLANSFYGYYGYAKARWYCKECAESVTAWGRKYIELVWKELEEKFGFKVLYIDTDGLYATIPGGESEEIKKKALEFVKYINSKLPGLLELEYEGFYKRGFFVTKKRYAVIDEEGKVITRGLEIVRRDWSEIAKETQARVLETILKHGDVEEAVRIVKEVIQKLANYEIPPEKLAIYEQITRPLHEYKAIGPHVAVAKKLAAKGVKIKPGMVIGYIVLRGDGPISNRAILAEEYDPKKHKYDAEYYIENQVLPAVLRILEGFGYRKEDLRYQKTRQVGLTSWLNIKKS
improvement of ratio of ddNTP/dNTP in sequencing ladders compared to wild type (ddNTPs): 150 fold
